What all share (assay): SPR, antibody captured, C2 as analyte;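 further: biacore at 37 °C, anti-C2 mAbs held by immobilised goat anti-human IgG, C2 alanine or serine mutants injected, double-referenced sensorgrams fitted to a 1:1 kinetic or steady-state model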
In assay [1] the target is T1, human C2 S456A (human, UniProt P06681 21-752).
T1 sequence: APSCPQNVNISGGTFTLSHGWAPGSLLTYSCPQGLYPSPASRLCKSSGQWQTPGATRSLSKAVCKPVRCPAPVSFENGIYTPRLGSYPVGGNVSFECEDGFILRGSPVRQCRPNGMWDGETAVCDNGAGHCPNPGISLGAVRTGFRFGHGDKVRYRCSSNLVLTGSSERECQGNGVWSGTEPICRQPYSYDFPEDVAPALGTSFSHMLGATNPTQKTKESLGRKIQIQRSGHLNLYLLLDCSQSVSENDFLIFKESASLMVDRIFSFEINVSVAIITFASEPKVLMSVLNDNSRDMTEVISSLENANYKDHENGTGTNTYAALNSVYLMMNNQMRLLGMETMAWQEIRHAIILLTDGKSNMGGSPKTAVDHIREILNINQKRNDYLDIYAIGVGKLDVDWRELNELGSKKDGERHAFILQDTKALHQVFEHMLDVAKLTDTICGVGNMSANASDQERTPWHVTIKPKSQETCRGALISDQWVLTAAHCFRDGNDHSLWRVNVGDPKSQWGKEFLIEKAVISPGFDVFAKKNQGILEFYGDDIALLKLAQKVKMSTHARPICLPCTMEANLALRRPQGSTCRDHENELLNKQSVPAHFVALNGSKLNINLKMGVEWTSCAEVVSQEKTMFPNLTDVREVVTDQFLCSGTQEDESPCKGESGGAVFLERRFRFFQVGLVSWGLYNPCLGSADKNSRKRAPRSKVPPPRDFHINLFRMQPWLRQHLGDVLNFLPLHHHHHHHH

The target in assay [2] is T2, human C2 E267A (human, UniProt P06681 21-752).
T2 sequence: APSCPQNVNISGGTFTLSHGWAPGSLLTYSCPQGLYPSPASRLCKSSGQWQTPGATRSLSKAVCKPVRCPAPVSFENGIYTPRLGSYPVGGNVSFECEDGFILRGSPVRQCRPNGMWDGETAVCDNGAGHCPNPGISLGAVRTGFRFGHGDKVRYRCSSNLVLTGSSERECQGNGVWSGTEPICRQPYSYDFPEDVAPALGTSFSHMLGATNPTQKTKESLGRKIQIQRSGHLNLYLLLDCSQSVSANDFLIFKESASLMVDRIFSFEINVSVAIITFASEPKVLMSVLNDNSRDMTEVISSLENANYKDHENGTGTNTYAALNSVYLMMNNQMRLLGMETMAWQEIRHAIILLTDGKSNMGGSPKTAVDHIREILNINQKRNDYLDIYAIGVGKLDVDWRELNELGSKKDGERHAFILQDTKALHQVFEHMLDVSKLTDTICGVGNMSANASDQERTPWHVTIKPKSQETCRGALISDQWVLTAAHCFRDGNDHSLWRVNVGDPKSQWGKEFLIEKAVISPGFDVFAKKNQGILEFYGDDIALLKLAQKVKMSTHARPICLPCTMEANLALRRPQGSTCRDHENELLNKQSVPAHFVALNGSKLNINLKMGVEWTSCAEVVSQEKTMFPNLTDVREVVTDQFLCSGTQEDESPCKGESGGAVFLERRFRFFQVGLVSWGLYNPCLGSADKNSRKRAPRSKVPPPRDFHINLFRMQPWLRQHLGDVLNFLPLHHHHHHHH

The target of assay [3] is T3, human C2 G466A (human, UniProt P06681 21-752).
T3 sequence: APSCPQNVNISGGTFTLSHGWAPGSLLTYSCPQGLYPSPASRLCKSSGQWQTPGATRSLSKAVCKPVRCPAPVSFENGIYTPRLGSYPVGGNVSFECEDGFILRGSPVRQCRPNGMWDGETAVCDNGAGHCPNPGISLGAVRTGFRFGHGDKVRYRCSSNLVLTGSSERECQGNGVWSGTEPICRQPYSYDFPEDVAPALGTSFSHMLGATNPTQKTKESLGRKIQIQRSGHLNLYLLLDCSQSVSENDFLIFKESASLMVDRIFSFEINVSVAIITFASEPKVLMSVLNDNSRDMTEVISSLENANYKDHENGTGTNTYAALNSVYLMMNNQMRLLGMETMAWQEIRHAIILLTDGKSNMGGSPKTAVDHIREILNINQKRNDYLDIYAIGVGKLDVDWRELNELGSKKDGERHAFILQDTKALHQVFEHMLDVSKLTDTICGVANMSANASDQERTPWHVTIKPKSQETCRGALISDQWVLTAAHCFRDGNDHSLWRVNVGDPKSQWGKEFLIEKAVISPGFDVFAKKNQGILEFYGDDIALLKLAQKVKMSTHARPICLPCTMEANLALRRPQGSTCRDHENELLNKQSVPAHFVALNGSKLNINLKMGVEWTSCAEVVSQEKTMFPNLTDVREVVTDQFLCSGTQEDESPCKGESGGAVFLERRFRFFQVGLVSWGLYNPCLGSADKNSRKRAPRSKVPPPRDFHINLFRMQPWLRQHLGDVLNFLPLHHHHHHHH

In assay [4] the target is T4, human C2 R493A (human, UniProt P06681 21-752).
T4 sequence: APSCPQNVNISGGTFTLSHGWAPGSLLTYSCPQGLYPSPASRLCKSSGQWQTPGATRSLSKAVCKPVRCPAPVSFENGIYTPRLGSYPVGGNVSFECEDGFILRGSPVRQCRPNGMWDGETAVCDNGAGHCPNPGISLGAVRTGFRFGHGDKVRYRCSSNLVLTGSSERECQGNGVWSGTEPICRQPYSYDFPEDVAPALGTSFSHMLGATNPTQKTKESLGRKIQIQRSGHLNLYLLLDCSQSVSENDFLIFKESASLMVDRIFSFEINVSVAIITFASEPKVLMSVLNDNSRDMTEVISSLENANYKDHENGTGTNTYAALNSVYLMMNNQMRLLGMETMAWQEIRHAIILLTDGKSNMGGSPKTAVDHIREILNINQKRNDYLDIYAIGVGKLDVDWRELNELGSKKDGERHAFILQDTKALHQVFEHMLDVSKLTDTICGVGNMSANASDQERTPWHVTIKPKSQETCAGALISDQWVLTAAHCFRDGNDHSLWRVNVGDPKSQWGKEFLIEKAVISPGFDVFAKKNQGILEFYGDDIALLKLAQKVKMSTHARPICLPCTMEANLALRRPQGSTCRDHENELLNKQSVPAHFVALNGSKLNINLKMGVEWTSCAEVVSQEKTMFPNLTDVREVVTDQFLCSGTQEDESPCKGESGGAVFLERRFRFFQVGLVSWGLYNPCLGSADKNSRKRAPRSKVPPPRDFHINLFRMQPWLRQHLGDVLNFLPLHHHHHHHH

What is called Kd is the equilibrium constant for the complex coming apart.

B1: RF16-242 (antibody, human IgG4 S228P, lambda, V domains shown)
VH: EVQLLQSGAEVKKPGESLKISCKGSGYSFTSYWIGWVRQMPGKGLEWMGIIYPGDSDTRYSPSFQGQVTISADKSISTAYLQWSSLKASDTAMYYCARRGHYGDYFDYWGQGTLVTVSS
VL: SYELTQPPSVSVSPGQTARITCSGDALPKKYAYWYHQKSGQAPVLVIYEDRRRPSEIPERFSGSSSGTMATLTITGAQVEDEGVYFCYSRDRAGNQRVFGGGTQLTVLG
notes: pH-dependent anti-C2 antibody from a phage display library
Regarding B1, the dissociation constant (Kd) in assay [1] worked out at 59.8 nM; in assay [2], 12.1 nM; in assay [3], 24.9 nM; in assay [4] it was 7.2 nM.

The values are drawn from patent publication US20220332804A1 (CSL INNOVATION, published 2022).
